In patent US8209131:

Molecular target: IL-4 receptor alpha (IL-4Ra) (UniProt P24394)
Experiment: cell-based or functional assay

Chain of IL-4 receptor alpha (IL-4Ra) (P24394 26-825 limits assumed): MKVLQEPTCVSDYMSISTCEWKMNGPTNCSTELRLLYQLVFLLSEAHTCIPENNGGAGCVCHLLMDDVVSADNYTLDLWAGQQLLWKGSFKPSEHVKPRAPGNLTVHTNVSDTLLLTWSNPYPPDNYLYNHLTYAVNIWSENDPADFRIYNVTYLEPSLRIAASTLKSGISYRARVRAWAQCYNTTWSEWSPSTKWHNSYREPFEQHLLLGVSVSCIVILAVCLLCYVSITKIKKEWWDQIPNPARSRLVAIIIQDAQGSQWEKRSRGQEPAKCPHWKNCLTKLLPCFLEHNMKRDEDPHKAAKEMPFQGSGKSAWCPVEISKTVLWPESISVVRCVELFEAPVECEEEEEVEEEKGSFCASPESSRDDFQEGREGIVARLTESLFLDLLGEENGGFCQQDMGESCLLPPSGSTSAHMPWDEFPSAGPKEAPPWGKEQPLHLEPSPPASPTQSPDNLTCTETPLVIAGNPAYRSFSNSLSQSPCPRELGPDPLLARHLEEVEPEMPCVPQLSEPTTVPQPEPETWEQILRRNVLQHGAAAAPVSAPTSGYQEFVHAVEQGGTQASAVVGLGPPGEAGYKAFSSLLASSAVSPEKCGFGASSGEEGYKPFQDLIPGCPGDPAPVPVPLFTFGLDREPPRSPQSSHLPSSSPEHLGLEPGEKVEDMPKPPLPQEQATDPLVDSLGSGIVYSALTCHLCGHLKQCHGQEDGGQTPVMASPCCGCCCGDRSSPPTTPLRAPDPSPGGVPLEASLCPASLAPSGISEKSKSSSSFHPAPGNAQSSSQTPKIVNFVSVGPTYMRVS

Conc needed for 50% growth (TF1.8 Bioassay), average	Substance
76.1 ng/mL	IL-4 mutant E9A (from UniProt P05112 25-153) (ligand)
0.67 ng/mL	IL-4 mutant K42A (from UniProt P05112 25-153) (ligand)
9.39 ng/mL	IL-4 mutant R53A (from UniProt P05112 25-153) (ligand)
0.63 ng/mL	IL-4 mutant R75A (from UniProt P05112 25-153) (ligand)
1.55 ng/mL	IL-4 mutant K77A (from UniProt P05112 25-153) (ligand)

More lines, now with the values behind:

Substance	Conc needed for 50% growth (TF1.8 Bioassay), average
IL-4 mutant K84A (from UniProt P05112 25-153) (ligand)	2.95 ng/mL
IL-4 mutant R88V (from UniProt P05112 25-153) (ligand)	415 ng/mL
IL-4 double mutant K77A/K84A (from UniProt P05112 25-153) (ligand)	1.69 ng/mL
IL-4 mutant K21A (from UniProt P05112 25-153) (ligand)	1.36 ng/mL
IL-4 mutant R81A (from UniProt P05112 25-153) (ligand)	4.85 ng/mL
IL-4 double mutant K77A/R53A (from UniProt P05112 25-153) (ligand)	11.3 ng/mL
IL-4 double mutant K77A/R81A (from UniProt P05112 25-153) (ligand)	1.65 ng/mL
IL-4 mutant K12A (from UniProt P05112 25-153) (ligand)	0.6 ng/mL
IL-4 mutant R85A (from UniProt P05112 25-153) (ligand)	0.71 ng/mL
